Experimental findings from publication PMC9789152 are described below.

Where “and” joins values, the source holds several entries; their conditions need not be identical. Equal values may be shown once.

Assay [1] has as its target S. mutans surface protein antigen I/II (Ag I/II), proline repeat working fragment (Streptococcus mutans UA159). In words: cryo-TEM of self-assembly; protein stock (10 mg/mL, pH 3.5) diluted 10 times with 4 mM PBS (pH 7.4 in the methods, pH 8.0 in the results); 10 min assembly reaction, plunge-frozen.
For assay [2], the target named is recombinant human amelogenin (AmH) (human). The description is as above.

What is called stoichiometry N is a count of units in the complex or per binding partner. On to “S. mutans surface protein antigen I/II (Ag I/II), proline repeat working fragment (domain or fragment)”, for which the stoichiometry N in assay [1] was 6 monomers and 10 monomers.

Regarding “recombinant human amelogenin (AmH) (natural protein)”, in assay [2], the stoichiometry N is 6 monomers and 8 monomers.
